Reference: IntAct's records for PubMed 26635368

B1: Sprouty-related, EVH1 domain-containing protein 1 (Homo sapiens), Q7Z699 (parent)
chain: MSEETATSDNDNSYARVRAVVMTRDDSSGGWLPLGGSGLSSVTVFKVPHQEENGCADFFIRGERLRDKMVVLECMLKKDLIYNKVTPTFHHWKIDDKKFGLTFQSPADARAFDRGIRRAIEDISQGCPESKNEAEGADDLQANEEDSSSSLVKDHLFQQETVVTSEPYRSSNIRPSPFEDLNARRVYMQSQANQITFGQPGLDIQSRSMEYVQRQISKECGSLKSQNRVPLKSIRHVSFQDEDEIVRINPRDILIRRYADYRHPDMWKNDLERDDADSSIQFSKPDSKKSDYLYSCGDETKLSSPKDSVVFKTQPSSLKIKKSKRRKEDGERSRCVYCQERFNHEENVRGKCQDAPDPIKRCIYQVSCMLCAESMLYHCMSDSEGDFSDPCSCDTSDDKFCLRWLALVALSFIVPCMCCYVPLRMCHRCGEACGCCGGKHKAAG

Variants of: B1
Conditions: with nf1_human NF1, P21359
nf1_human NF1, P21359, sequence (P21359 whole entry): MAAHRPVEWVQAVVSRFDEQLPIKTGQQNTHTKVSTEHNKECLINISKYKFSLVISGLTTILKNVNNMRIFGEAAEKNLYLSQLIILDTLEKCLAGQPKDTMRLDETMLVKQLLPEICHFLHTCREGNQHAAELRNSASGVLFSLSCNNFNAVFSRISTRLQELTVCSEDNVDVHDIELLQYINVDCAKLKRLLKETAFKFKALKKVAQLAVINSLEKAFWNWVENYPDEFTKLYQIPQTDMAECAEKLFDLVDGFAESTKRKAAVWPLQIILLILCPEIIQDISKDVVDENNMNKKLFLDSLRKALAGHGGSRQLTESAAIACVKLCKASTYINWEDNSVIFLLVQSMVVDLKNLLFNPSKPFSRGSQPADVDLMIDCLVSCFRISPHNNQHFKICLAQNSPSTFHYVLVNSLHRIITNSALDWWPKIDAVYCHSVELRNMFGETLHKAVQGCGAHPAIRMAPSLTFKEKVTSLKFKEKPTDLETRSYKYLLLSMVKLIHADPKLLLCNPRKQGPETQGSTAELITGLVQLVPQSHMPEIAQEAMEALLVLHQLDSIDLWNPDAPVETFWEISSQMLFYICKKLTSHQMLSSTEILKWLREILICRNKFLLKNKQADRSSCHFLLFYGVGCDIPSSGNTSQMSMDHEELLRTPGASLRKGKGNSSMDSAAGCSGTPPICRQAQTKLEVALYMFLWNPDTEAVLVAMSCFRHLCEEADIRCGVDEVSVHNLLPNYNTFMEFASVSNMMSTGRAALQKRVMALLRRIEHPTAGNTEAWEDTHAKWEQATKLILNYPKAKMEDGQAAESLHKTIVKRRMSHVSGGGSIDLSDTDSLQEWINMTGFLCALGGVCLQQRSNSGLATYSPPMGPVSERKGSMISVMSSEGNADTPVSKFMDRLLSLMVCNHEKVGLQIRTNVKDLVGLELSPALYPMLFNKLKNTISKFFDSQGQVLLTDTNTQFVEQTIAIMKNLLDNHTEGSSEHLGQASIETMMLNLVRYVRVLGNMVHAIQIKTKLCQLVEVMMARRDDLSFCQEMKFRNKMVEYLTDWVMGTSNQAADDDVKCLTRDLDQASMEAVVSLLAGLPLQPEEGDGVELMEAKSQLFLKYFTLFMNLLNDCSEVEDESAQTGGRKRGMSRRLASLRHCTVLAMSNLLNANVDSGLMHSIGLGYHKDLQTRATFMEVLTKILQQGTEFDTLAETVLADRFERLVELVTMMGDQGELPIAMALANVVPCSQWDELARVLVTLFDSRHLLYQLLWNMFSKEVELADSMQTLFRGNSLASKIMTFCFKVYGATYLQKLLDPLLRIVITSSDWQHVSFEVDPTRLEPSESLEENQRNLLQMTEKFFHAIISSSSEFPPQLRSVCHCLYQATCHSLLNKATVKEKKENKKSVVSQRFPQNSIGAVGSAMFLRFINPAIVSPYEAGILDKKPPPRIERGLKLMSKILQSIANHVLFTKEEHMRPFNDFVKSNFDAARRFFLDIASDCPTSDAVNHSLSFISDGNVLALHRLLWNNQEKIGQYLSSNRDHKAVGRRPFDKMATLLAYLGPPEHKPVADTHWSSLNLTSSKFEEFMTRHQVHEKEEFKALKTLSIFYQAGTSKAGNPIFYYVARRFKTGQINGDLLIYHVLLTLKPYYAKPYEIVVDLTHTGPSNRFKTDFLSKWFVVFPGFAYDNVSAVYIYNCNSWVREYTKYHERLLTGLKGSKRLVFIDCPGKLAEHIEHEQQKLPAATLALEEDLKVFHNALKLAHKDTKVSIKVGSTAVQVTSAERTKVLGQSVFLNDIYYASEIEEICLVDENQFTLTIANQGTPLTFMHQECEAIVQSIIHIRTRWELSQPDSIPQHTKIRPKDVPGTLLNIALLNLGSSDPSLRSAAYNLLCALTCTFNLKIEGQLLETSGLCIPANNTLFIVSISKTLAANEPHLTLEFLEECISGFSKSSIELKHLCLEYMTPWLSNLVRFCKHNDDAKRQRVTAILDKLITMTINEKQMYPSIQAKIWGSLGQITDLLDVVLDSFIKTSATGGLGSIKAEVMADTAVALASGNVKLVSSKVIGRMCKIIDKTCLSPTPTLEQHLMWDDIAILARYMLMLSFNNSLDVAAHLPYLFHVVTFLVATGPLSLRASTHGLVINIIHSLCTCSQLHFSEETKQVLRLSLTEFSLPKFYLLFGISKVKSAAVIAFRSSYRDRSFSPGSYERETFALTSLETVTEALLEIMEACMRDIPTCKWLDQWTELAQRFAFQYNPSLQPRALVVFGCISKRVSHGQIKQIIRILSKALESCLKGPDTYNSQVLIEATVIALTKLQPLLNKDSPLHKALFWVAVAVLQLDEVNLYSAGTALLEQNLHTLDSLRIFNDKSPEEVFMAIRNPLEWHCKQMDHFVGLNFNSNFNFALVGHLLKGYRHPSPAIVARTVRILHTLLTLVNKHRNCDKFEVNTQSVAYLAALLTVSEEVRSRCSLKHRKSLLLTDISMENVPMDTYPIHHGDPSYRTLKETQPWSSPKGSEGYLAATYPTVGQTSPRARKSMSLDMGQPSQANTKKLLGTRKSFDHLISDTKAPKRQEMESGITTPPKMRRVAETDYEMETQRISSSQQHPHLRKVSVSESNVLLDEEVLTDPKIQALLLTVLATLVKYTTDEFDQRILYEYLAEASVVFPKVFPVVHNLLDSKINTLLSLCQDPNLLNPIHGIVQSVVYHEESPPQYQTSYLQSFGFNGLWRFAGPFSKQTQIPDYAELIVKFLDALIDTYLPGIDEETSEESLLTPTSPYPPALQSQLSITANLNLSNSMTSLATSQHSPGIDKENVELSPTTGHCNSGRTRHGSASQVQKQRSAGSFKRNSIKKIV

Variant	effect of a mutation on the interaction
N10K	with no effect
T88K	disrupting interaction strength
G30R	decreasing interaction strength
D9V	with no effect
G62R	decreasing interaction strength
V44D	disrupting interaction strength
C74F	with no effect
L80R	decreasing interaction strength
R24Q	decreasing interaction strength
W31C	decreasing interaction strength
W31L	disrupting interaction strength
V42I	with no effect

Further lines, results first:

effect of a mutation on the interaction	Variant
decreasing interaction strength	T102R
decreasing interaction strength	T102M
disrupting interaction strength	T102K
decreasing interaction strength	I116N
decreasing interaction strength	G100D
disrupting interaction strength	W92R

Variants of: B1
Conditions: with nf1_human NF1, P21359
Remark: another data set of the same source

effect of a mutation on the interaction	Variant
disrupting interaction strength	G30R
disrupting interaction strength	W31C

Variants of: B1
Conditions: with nf1_human NF1, P21359
Remark: another data set of the same source

effect of a mutation on the interaction	Variant
disrupting interaction strength	T102R
